The EC50 is the concentration at which the effect is half-maximal. Low values mean a more potent agent, high ones a less potent agent.

The chains are these.
B1: His6-EGFP-KRIT1 (WT) FERM domain (417–736) (domain or fragment, human, UniProt O00522 417-736, looked up)
chain: KPYEKVRIYRMDGSYRSVELKHGNNTTVQQIMEGMRLSQETQQYFTIWICSENLSLQLKPYHKPLQHVRDWPEILAELTNLDPQRETPQLFLRRDVRLPLEVEKQIEDPLAILILFDEARYNLLKGFYTAPDAKLITLASLLLQIVYGNYESKKHKQGFLNEENLKSIVPVTKLKSKAPHWTNRILHEYKNLSTSEGVSKEMHHLQRMFLQNCWEIPTYGAAFFTGQIFTKASPSNHKVIPVYVGVNIKGLHLLNMETKALLISLKYGCFMWQLGDTDTCFQIHSMENKMSFIVHTKQAGLVVKLLMKLNGQLMPTERNS
B2: biotinylated HEG1 cytoplasmic tail (a.a. 1274–1381) (domain or fragment, UniProt Q9ULI3 1274-1381, looked up)
chain: RKNKNDISKLIFKSGDFQMSPYAEYPKNPRSQEWGREAIEMHENGSTKNLLQMTDVYYSPTSVRNPELERNGLYPAYTGLPGSRHSCIFPGQYNPSFISDESRRRDYF
modifications: biotin on the in vivo biotinylation peptide tag

Test [1] deals with B2. Description: flow cytometry on beads. In general terms: A flow cytometer gives signals particle by particle.
The target of test [2] is B1. Put plainly: flow cytometry on beads.

B1 yielded an EC50 in test [1] of 32.4 nM. As for B2, the binding result in test [2] was “binds”.

For the origin of these results see PMC8103725 (FASEB BioAdvances, 2021).
